pIC50: −log10 of the molar value. Bounds are passed on as bounds.

Experiment in all cases: IEDB peptide-MHC binding, purified MHC/competitive/radioactivity; ≥ and ≤ were set here for values at or beyond the usual limits of such assays
Holding throughout (conditions): source organism: Bordetella pertussis

Assay [1] deals with HLA-A*02:01.
Assay [2] addresses HLA-B*44:03.
The target in assay [3] is HLA-B*53:01.
In assay [4] the target is HLA-B*07:02.
Assay [5] deals with HLA-B*57:01.

Regarding FTHADGWFL, the pIC50 in assay [1] is 4.85.

Consider VEASAITTY, for which the pIC50 in assay [2] was 5.71.

In the case of PGTFTAGKD, the negative logarithm of the IC50 (pIC50) in assay [1] was 4.20.

As for LSDAGHEHD, the pIC50 in assay [3] is 4.44.

For the sequence ILPILVLAL, in assay [1], the pIC50 was 7.60.

Turning to NPQTQLSNI, in assay [3], the pIC50 is 4.63.

For the sequence YEDATFETY, the pIC50 in assay [2] was 5.43.

Consider FDTMLGFAI, for which the pIC50 in assay [3] was 5.54.

Regarding PGTPGDLLE, the pIC50 in assay [3] was ≤ 4.11.

For PPRPVVAEK, in assay [4], the pIC50 was 4.16.

In the case of ANEANALLW, the pIC50 in assay [2] was 5.04.

As for EVDGIIQEF, the pIC50 in assay [2] was 4.80.

Regarding SSTPLGSLF, the negative-log IC50 (pIC50) in assay [5] is ≤ 4.15.

For the origin of these results see the Immune Epitope Database (IEDB).
